Results as given in the domain aggregation screens of Martell et al. (2025).

Experiment: soluble fraction after stress (log2 fold change); higher = more stays soluble; pooled small domains, quantitative proteomics
Settings: stress: 50 degC
Procedure, shortened: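 The measure of aggregation propensity here is the base-two logarithm of the fold change in the soluble amount of each protein after stress. A higher value means more of that protein stays in solution. Stress was applied at 50°C to pooled libraries of small protein domains, read out by high-throughput quantitative proteomics.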

| Sequence | soluble fraction (log2) |
| --- | --- |
| HMGKIINMSKVKQVLRLHTQGVSNRRIALDLGLYKGTVNSYIRKIKDHGYDIAEVLKLDDPVLESKLFA | -0.227 |
| HMGKKGPELNDNEKIIFNIISKENSMNLDDLKNRTELSNKQWDKAIKGLRSHELVNIEKIDDQLLIHL | 0.196 |
| HMGKKQLVVDLQSIITDVPAALKSYGLEIGQDGKSLIYTYDTKGERTGITTLLNDLQKAGLQMTDMKTQQ | 0.0536 |
| HMGKPTPASQVATRWLAGDLPETLPVAGPAPSFETLARSVSTDFHPRAVLQELLRLGVAEEADGRVRLLK | 0.00959 |
| HMGKQPLYEQLVDLLRDRIENDMETGELLPSERKLAHHFGLSRTTVRLAMDRLETLGLITRVHGKDTFVAE | -1.17 |
| HMGKREKTKVANRQAILVAARAVFAELGYEAATVRDIIRGTDLASGTFYNYFKSKEEVFDALADDGA | -1.17 |
| HMGKSETALELIKRGHRLIADDAVEITRIGSTLSGTAPELIRNYLEVRGVGVIDVEKLFGVGAVQDSTQI | 0.0401 |
| HMGKSPLDALSAREKEVLTYITRGVSINDIAAVLYLSPKTVSTHKTNLMQKLGIENNADLILFGVNHGLND | -0.513 |
| HMGLIAPMPGQIRSVAVSVGDVVKKGQTLLTMEAMKMEIRIQALKDGRVTALHAAQGQTVEGEQILIEVE | -0.000533 |
| HMGLLEMPSERERQVLVLIAEGLSNKEIAARLYLTEGTVKNHAHSLYAKLNVTTRTLAIARARQLGI | -1.54 |
| HMGLLLSQLDKDYQRYIDLADSTFRDNQLAVSRGWYNRALGVKAAEKYPKDQIAEIEKKIAERM | -0.181 |
| HMGLNEGLNEGQQKVIQHIQENEGIKVKEISLKLNMPIDTVDRHIRVLKNLNLIERRGSRKTGGYFISN | -0.266 |
| HMGLNELQVKLNEAMQRLSLKHRTVVVMHDIEGIPHDEIAKIVGVSVGTIRSRLFYARRQLQADLGEY | -2.57 |
| HMGLNNVSDILRLDFNSFKKKFDKLPSGYKNSVVEQAALMIKSGELDSIKIKDYIEKSMGIELDI | -0.27 |
| HMGLQDLFLNSLRKSKTPVTMFLVKGVKLQGVVTWFDNFSVLLRRDGMSQLVYKHSISTIMP | -0.0722 |
| HMGLSARIAQRIHGLRTAQRMSLEALAARSGVSRSMISLIERNEASPTAVVLEKIATGLNVVLAALFDTP | -1.29 |
| HMGLSNYEFNSISQTVKEKLEQGPLTLKALVDETAHLFAEDKVVSVVQWLIDQRDLAYDDHGLLQWKG | -0.418 |
| HMGLTLREKMGHVLEMLKGREFLPFVSLFTVEEGRIGVVVTFMSILELVKEGILDLVQTESFGPIHVKAR | -0.326 |
| HMGMAETTARILQLLGLLQSRRGWSGQELAERLGVTTRSVRRDVERLRELGYPVHASAGHGGGYQLGA | -1.8 |
| HMGMGDALRILFNQAMLIEREQYLQAGAYERNENPVNYANGFKAKTLNTRVGALEVAVPQTRDSAFYPSFL | -0.114 |
| HMGMLATFVTSAKVPDDVVYAITKEVFENLDEFKKLHPALEGLTRETMLEGLTAPIHPGALKYYKEAGLM | -0.522 |
| HMGMSQQKQSSTVRIIMQDISDANEGLMKMSQIIDAALAEGISETIVRNAISNLHRGGTIYESQTGTYQW | -0.359 |
| HMGMTDEELNREEERVVAELEAKDEEELTIYNEEDLTFEETLDLPEGSLMRDRENGMIYLKVLDIWMPY | -0.54 |
| HMGMTNRIKELRKAKGYRQEDLAAALGVSRQTIIAVENNKYNPTLELAMKLARHLQTTVEELFQL | -0.758 |
| HMGMVEFEIGERDHSEDVSRKLFEAGLIEDASDFNQYMIEKKMDDHLQTGKYQIPKGATKDEILELIVR | -0.00544 |
| HMGMYAEERHQAIASLARKHGRVSVAELAERFNVTSETIRRDLDSLARRGLLTRVHGGAVPVE | 0.0963 |
| HMGMYFTEMRKNEGLIALNGVAESNKRVSDLMDNLKDSSSFDAADIKAVKSGSGDASSLMDFELLVT | 0.113 |
| HMGNASQAARRQRIVDAALELLQDRPYDQIQMRDVAEGAGVALGTLYRYFPSKEQLFAHVLVE | 0.027 |

| Sequence | soluble fraction (log2) |
| --- | --- |
| HMGNEMQVPNVAGKTVDEAIEIFNNMGLKVAAENKYAQSDDVKEGDVVKTDPSSGRNVKKGSEITLYISQG | 0.0976 |
| HMGNEVMYRQDLSEQELLSFIKKYTGQDEVTHIVVGAPKQRDNTPSPVETKITPFVVQLKAQFPDVNVV | 0.115 |
| HMGNFNDMLKYLRVREKMSQAELADKLGVSKSTVGMYELGKREPDFETLEAIADLFNVDMNFLLGK | -0.35 |
| HMGNHMSFKMWGEQLQEAFRALETYDTQKAKTILNELVRFPIDSDITKALKGIISNIDDMMA | -0.535 |
| HMGNLPPAVINARIKVSPAGRGVFVGFDKGSTSTEAKYADAIRGYLPNIEFNKDDHESVVTVPFNFR | -0.032 |
| HMGNTLAYSEFRQKVQEGAVKQVVLSEDRVTGELTNGDRFTANIVRDPELLKMLNDNNVKYDGKPT | 0.203 |
| HMGNVGEAIEALVKGFQEGNQFQTLLGVTGSGKTFTMANVIAALNKPTLIISHNKTLAAQLYLSLIHIS | 0.112 |
| HMGNYRVIKWGMQGDDVKLMQQMLINRGYVLSATGKYASRTLKAIMAFQEANGLKADGIVGKRTWNKLL | -2.66 |
| HMGPAYEKIVANGQTFYRYNVKKGEGLMAVSRTFNVSVNDILKYNPSAASGLKDGQELLIPVIDDA | 0.164 |
| HMGPESKLTDAIKDYIYALYENLKGKSKFRNTIIEEVKKLYGVDISRESIRRVVNQKTDAETTENDDDEKA | ≥ 0.62 |
| HMGPKALLKIPGLQEVDAELLFKEGYKSISAVASADPEMLKAIPGVDEQKVTEWVTGAEQILSQQVNKGA | 0.342 |
| HMGPKPVDMSPIPEGQRNQVLHDWMYGRAANHPENWGQIRSDALERGLKSGLKADEIHAITGSVARALGLE | 0.12 |
| HMGPNPLTEREQEILQLARTGEPVARLAKRLFLSPGTVRNHLSSAIGKLGAANRVEAAQFATERGW | 0.0816 |
| HMGPSLDAVREQIRDLIAEEDKSAPYSDLSLVAELEKRGIHISRRTIAKYRGEMGIPNSDQRRYF | 0.0495 |
| HMGPSSIVVYVSGAVKTPGVYTLAPGSRVDDAVRAAGGLSERAESAGTNLAAQLSDGEHVHVAAAGE | 0.228 |
| HMGPTGGLTPHIAIADKRASEAIEFYKQAFGAVEQVRMPAEDGVRLMHAHLLVNGSSLMMHDDFPEYSGQ | 0.0526 |
| HMGPTLSPAEKRVFEVIPYDAILQDMVIRAAELPPGEVLAALTTLELKGLIKRLPGNLVMRRAR | 0.0188 |
| HMGPVALGVTDGATYFSSVTITFRRGTAVLDGEPIASGHTVYKSGAHSLTLTAGGKTRTIAFTMDT | -4.23 |
| HMGPVPLASAADMEKFYSHLQQVLDEVDFKDRTGSGHLMARLRRLFQRTVLDQNEINILRGILMAVQGRR | -2.85 |
| HMGQGAASAPLRELGVDPVSEKQMVLKDGRFGPYVTDGETNASLRKGDEVETITDERASELLQMRRDAGPS | -0.195 |
| HMGQISDDGALKKLASEVLAANPQALADWKAGKQQAVSFLVGQAMKASKGRGDAALLGELIRAALD | 0.0134 |
| HMGQKASEVEKIFVELQQQIIRGDLPPGYRLVESQIAAQFGVSRTPARLAIERLATAGLVAHETNRGATVH | -0.42 |
| HMGQKNEDESLAKFYVHKKGNQYGPYSLIQIREYLKNNSFSLDDLASWDGQSWKKISQIPNLN | -0.075 |
| HMGQLTDKQILLFSGKLAYEPTFASKYSKAGESYDDFIIRISGDLTDPKKIKEYSPYLKELGF | -0.161 |
| HMGQNYTIVKGDSLWKIAQKQYGDGSQWKKIYDANKDAIESAAKKYGKKSSDSGKWIYPGVSLII | 0.0704 |
| HMGQVEVPDVVGMTQERAITTLTEAKLVAQIQLTPADVAKGLVAAQSPRAGLKIGEGSFVTIEVSTGPVI | 0.0948 |
| HMGQVFEGTFNRKANGKNSVTPAEGGEPVFIAERNSLHAMNGDLVKVSLLAKKKHQPREAQVIEILKRSD | 0.144 |
